From patent publication US20250313629A1 come the findings set out here.

The assay concerns the target cynomolgus Lag3 on cells (HEK293F cells transiently transfected with cyno-LAG-3; activated cynomolgus PBMC/T cells) (cynomolgus). In words: flow cytometry on CD3/CD28-activated cynomolgus PBMC, antibody at 10 ug/ml. For orientation: A flow cytometer gives signals particle by particle.

In turn, DP47 (human isotype) (antibody) gave a percentage of Lag3 positive cells of 9.19%.
